T1: Splicing Factor Proline/Glutamine Rich, PSF/SFPQ (human (endogenous in BJ fibroblasts)), P23246
T1 chain: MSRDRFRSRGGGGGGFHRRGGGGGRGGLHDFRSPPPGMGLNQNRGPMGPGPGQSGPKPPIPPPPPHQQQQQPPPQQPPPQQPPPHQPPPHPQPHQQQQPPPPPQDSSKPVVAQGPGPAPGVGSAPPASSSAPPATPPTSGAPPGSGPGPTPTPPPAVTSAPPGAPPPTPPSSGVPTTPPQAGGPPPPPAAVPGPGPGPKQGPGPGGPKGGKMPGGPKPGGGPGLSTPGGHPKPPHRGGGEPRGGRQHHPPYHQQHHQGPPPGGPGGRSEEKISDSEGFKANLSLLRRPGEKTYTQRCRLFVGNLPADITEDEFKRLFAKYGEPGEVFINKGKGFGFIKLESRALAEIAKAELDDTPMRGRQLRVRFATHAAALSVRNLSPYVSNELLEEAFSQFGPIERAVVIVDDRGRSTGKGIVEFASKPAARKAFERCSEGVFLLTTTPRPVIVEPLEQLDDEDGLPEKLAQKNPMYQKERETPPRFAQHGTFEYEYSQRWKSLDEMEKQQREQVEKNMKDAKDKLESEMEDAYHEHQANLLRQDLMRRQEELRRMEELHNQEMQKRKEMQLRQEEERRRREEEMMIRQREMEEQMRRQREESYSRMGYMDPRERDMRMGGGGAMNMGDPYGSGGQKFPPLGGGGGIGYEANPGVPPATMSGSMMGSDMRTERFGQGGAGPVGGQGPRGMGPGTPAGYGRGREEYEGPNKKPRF


Columns and labels:
[1] = biological target: the molecule itself; test: SEC; Superose 6 FPLC of nuclear and cytoplasmic extracts of BJ fibroblasts, untransfected or overexpressing NonO, day 8; 400 mM KCl, 20 mM HEPES pH 7.9, 1.0 mM MgCl2, 0.5 mM EGTA, 10% glycerol; fractions blotted with anti-NonO and anti-PSF; masses estimated from marker proteins
[2] = biological target: T1, Splicing Factor Proline/Glutamine Rich, …; test: as above; conditions: remark: other sources report otherwise

stoichiometry N [2] | Binder | stoichiometry N [1]
– | NonO overexpressed in BJ fibroblasts (natural protein, UniProt Q99K48 1-473, looked up, NonO cDNA expressed from a transfected plasmid; Its NonO fragments end at residue 473; The tag is therefore unknown; also called NonO OE; full-length NonO; source: BJ human diploid fibroblasts, stably transfected, nuclear or cytoplasmic extract) MQSNKAFNLEKQNHTPRKHHQHHHQQHHQQQQQQQQQQPPPPIPANGQQASSQNEGLTIDLKNFRKPGEKTFTQRSRLFVGNLPPDITEEEMRKLFEKYGKAGEVFIHKDKGFGFIRLETRTLAEIAKVELDNMPLRGKQLRVRFACHSASLTVRNLPQYVSNELLEEAFSVFGQVERAVVIVDDRGRPSGKGIVEFSGKPAARKALDRCSEGSFLLTTFPRPVTVEPMDQLDDEEGLPEKLVIKNQQFHKEREQPPRFAQPGSFEYEYAMRWKALIEMEKQQQDQVDRNIKEAREKLEMEMEAARHEHQVMLMRQDLMRRQEELRRMEELHNQEVQKRKQLELRQEEERRRREEEMRRQQEEMMRRQQEGFKGTFPDAREQEIRMGQMAMGGAMGINNRGAMPPAPVPPGTPAPPGPATMMPDGTLGLTPPTTERFGQAATMEGIGAIGGTPPAFNRPAPGAEFAPNKRRRY | 2
2 | Splicing Factor Proline/Glutamine Rich, PSF/SFPQ, P23246 1-707 (natural protein) MSRDRFRSRGGGGGGFHRRGGGGGRGGLHDFRSPPPGMGLNQNRGPMGPGPGQSGPKPPIPPPPPHQQQQQPPPQQPPPQQPPPHQPPPHPQPHQQQQPPPPPQDSSKPVVAQGPGPAPGVGSAPPASSSAPPATPPTSGAPPGSGPGPTPTPPPAVTSAPPGAPPPTPPSSGVPTTPPQAGGPPPPPAAVPGPGPGPKQGPGPGGPKGGKMPGGPKPGGGPGLSTPGGHPKPPHRGGGEPRGGRQHHPPYHQQHHQGPPPGGPGGRSEEKISDSEGFKANLSLLRRPGEKTYTQRCRLFVGNLPADITEDEFKRLFAKYGEPGEVFINKGKGFGFIKLESRALAEIAKAELDDTPMRGRQLRVRFATHAAALSVRNLSPYVSNELLEEAFSQFGPIERAVVIVDDRGRSTGKGIVEFASKPAARKAFERCSEGVFLLTTTPRPVIVEPLEQLDDEDGLPEKLAQKNPMYQKERETPPRFAQHGTFEYEYSQRWKSLDEMEKQQREQVEKNMKDAKDKLESEMEDAYHEHQANLLRQDLMRRQEELRRMEELHNQEMQKRKEMQLRQEEERRRREEEMMIRQREMEEQMRRQREESYSRMGYMDPRERDMRMGGGGAMNMGDPYGSGGQKFPPLGGGGGIGYEANPGVPPATMSGSMMGSDMRTERFGQGGAGPVGGQGPRGMGPGTPAGYGRGREEYEGPNKKPRF | –

Reference: publication PMC5270673, “Altered stoichiometry and nuclear delocalization of NonO and PSF promote cellular senescence” (Aging (Albany NY), 2016)
